# Assay: yeast display, Sf9 membrane polyspecificity reagent, FACS + sequencing; frameworks hold sequencing errors
# In short: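 After 36–48 hours of galactose induction, yeast (Saccharomyces cerevisiae BJ5465) displaying a synthetic nanobody library were stained at 4 °C for 1 hour with 10% biotinylated, detergent-solubilized Sf9 membrane reagent. Streptavidin microbeads enriched the stained cells before FACS sorting into low and high (top ~1%) gates on anti-HA and streptavidin fluorescence. Each clone's polyreactivity label reflects its gate of origin.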
row,Sequence,polyreactivity (PSR sort gate)
1,QVQLVESGGGLVQAGGSLRLSCAASGLTYANAKGWYRQAPGKERELVATIRYSGGSTYYADSVKGRFTISRDNAKNTVYLQMNSLKPEDTAVYYCAARRTAGYRSGEYDYWGQGTQVTVSS,high polyreactivity
2,QVQLVESGGGLVQAGGSLRLSCAASGSTFARYAMGWYRQAPGKEREFVAAISASGGRTYYADSVKGRFTISRDNAKNTVYLQMNSLKPEDTAVYYCAVRVYAKYFAKYDYWGQGTQVTVSS,high polyreactivity
3,QVQLQESGGDLEQAGGSLLLSCTASGTISEVRVMGWYRQAPGKERELVATISYVTITYYADSVKGRFTISRDSEKHRVSADDEPQTGRYRGVLLSYYWGLGTQVTVSS,low polyreactivity
4,QVQLVESGGGLVQAGGSLRLSCAASGFIFYKYAMGWYRQAPGKERELVAAITRSGGSTYYADSVKGRFTISRDNAKNTVYLQMNSLKPEDTAVYYCAKRSYRARDAVPGGFDSWGQGTQVTVSS,high polyreactivity
5,QVQLVESGGGLVQAGGSLRLSCAASGFIIYGYAMGWYRQAPGKESELVAAISRRSASTYYADSVKGRFTISRDNAKNTVYLQMNSLNPEDTAVYYCNAASARGVIGYKPLWYARGYWGQGTQVTVSS,high polyreactivity
6,QVQLVESGGGIVQAGGSLRLSCAASGRISAYNAMGWYRQAPGKERELVAAITYDGGSTYYADSVKGRFTISRDNAKNTVYLHMNSLKPEDTAVYYCNAGADSVSFRDGGITTYDYWGQGTQVTVSS,low polyreactivity
7,QVQLVESGGGLVQAGGSLRLSCAASGSILSGYAMGWYRQAPGTERELVAAINDGGGTNYADSVKGRFTISRDNAKNTVYLQMKSLKPEDTAVYYCAAEQSVSFLVFTGVKFDYWGQGTQVTVSS,low polyreactivity
8,QVQLVESGGGLVQAGGSLRLSCAASGSIFGGYGMGWYRQAPGTERELVAAITSGSSTYYADSVKGRFTISRDNAKNTVYLQMNSLKPEDTAVYYCAARPYPHSAYEGDYWGRGTQVTVSS,low polyreactivity
9,QVQLVESGGGLVQAGGSLRISCAASGSISVRNVMGWYRHAPGKERELVATIRRTGGSTSYADSVKGRFTISRDNAKNTVYLQMNSLKPEDPAVYYCAAVGYTTYRRYDYWGQGTQVTVSS,low polyreactivity
10,QVQLVESGGGLVQAGGSLRLSCAASGRTFAYNTMGWYRQAPGKERELVAAITSGGSTYYADSVKGRFTISRDNAKNTVYLQINSLKPEDTAVYYCSAVDYWDYFYWRDDYWGQGTQVTVSS,low polyreactivity
11,QVQLVESGGGLVQAGGSHRLSCAASGRIFKINAMGCYRQAPVKERELVAGISGSGSDTYYADSVKGRFTISRDNSKNTVYLQMNSLKPEDTAVYYCAATVVQYYDRDYWGQGTQVTVSS,low polyreactivity
12,QLQLVDSGGGLVQAGGSLRLSCAASGSIFGAYAMGWYRHAPGKERELVAAINYGGATTYYADSVKGRFTISRDNAKNTVYLQMNSLIPEDTAVYYCAADYLYAYGDVADVYGWYAYYYWGQGTQVTVSS,low polyreactivity
13,QVQLVESGGGLVQAGGSLRLSCAASGITFSLYAMGWYRQAPGKERELVAAITRSGGSTYYADSVKGRFTISRDNAKNTVYLQMNSLKPEDTAVYYCAAQRPGVRRYYYWGQGTQVTVSS,high polyreactivity
14,QVQLVDSGGGLVQAGGSLRLSCAASGRTFGVNTMGWYRQAPGKERELVAAISWSGGRTYYADSVKGRFTISRDNAKNTVYLQMNSLKPEDTAVYYCAASWYSRASLYDYWGQGTQVTVSS,high polyreactivity
15,QVQLVESGGGLVQAGGSLRLSCAASGSTFRYYAMGWYRQAPGKERELVARISWRGGSTYYADSVKGRFTISRDNAKNTVYLQMNRLKPEDTAVYYCAAVRWVRYRTSAYEYWGQGTLVTVSS,high polyreactivity
16,QVQLVESGGGLVQAGGSLRLSCAASGRIFDGNALGWYRKAPGKERELFAAISWTGGSTYYADSVKGRYTISRDNAKNTVYLQLNSLKPEDTAVYYCAADSGWWLDQLSWYDYWGQGTQVTVSS,low polyreactivity

row,Sequence,polyreactivity (PSR sort gate)
1,QVQLVESGGGLVQAGGSLRLSCAASGLIFYYYVMGWYRQAPGKERELVARISTSGGSTYYADSVKGRFTISRDNAKNTVYLQMNSLKPEDTAVYYCAARGYRQYGWDGYWGQGTQVTVSS,low polyreactivity
2,QVQLVESGGGLVQAGGSLRLSCAASGSIIVRNALGWYRQEPGTERELVAAISWGGGRTYYADSVKGRFTISRDNAKNTVYLQMNSLKPEDTAVYYCAAVHRAVQMGYWGQGTQVTVSS,high polyreactivity
3,QVQLVESGGGLVQAGGSLRLSCAASGFTFRNYAMGWYIQAPGKERELVATISWSGGSTYYADSVKGRFTISRDNAKNTVYLQMNSLKPEDTAVYYCAAKTILWKYYPYYYVTYDYWGQGTQVTVSS,high polyreactivity
4,QVQLVESGGGLVQAGGSLRISCAASGFIFIAYAMGWYRQAPGKERELVAAISKSGGNTYYADSVKGRFTISRDNAKNTVYLQMNSLKPEDTAVYYCATRPCYWRYEYWGQGTQVTVSA,high polyreactivity
5,QVQLVESGGGLVQAGGSLRLSCAASGSIVSTYAMGWYSQAPGKERELVAAITSTGSMNYADSVKGRFTISRDNAKNTVYLQMNSLKPEDTAVYYCAARYAGPSPTDTGHDYWGQGTQVTVSS,low polyreactivity
6,QVQLVESGGGLVQAGGSLRLSCAASGSTFSRNAMGWYRQAPGKERELVAAISYRGGSTYYADSVKGRFTISRDNAKNTVYLQMNSLKPEDTAVYYCNADVGWRAPDYGGYDYWGQGTQVTVSS,high polyreactivity
7,QVQLVESGGGLVQAGGSLRLSCAASGSTFRGYAMGWYRQAPGKDRELVATISGSDGTTYYADSVQGRFTISRDNAKKTVYLQMNSLKPEDTAVYFCAAGETFEMYYWGQGTQVTVSS,low polyreactivity
8,QVQLVESGGGLVQAGGSLRLSCAASGYIFVGNAMGWYRQAPGKERELVATIRSSTGNTYADSVKGRFTISRDNAKNTVYLQMNSLKPEDTAVYYCATVYELPGWGREYGYWGQGTQVTVSS,low polyreactivity
9,QVQLVESGGGLVQAGGSLRLSCAASGRTCGRYAMGWYRQAPGKERELVADISWNGGRTYYADSVKGRFTISRDNAKNTVYLKMNSLKPEDSAVYYCAKRFSPRYYYWGQGTQVTVSS,high polyreactivity
10,QVQLVESVGGLGQARVRLRLSCAASGITFYRYAMGWYRQAPGKERELVAAITSRGTSTYYADSVKGRFTISRDNAKNTVYLQMNSLKPEDTAVYYCAAVLFVGDGGYDYWGQGTQVTVSS,high polyreactivity
11,QVQLVESGAGLVQAGGSLRLSCAASGFTFYDYAMGWYRQAPGKERELVAAISRGGGSTYYADSVKGRFTISRDNAKNTVYLQMNSLKPEDTAVYYCNAALTRVSRFWGGDYYYWGQGTQVTVSS,high polyreactivity
12,QVQLVESGGGLVQAGGSLRISCAASGSIFGGYSMGWYRQAPGKERELVAAIRYSGVSTYYADSVKGRFTISRDNAKYTVYFQMNSLKAEDTAVYYCNAVPFYYHYDYWGQGTQVTVSS,high polyreactivity
13,QVQLVESGGGLVQAGGSLRLSCAASGSTFTRNAMGWYRQAPGKERELVAAITSSGGSTYYADSVKGRFTISRDNAKNTVYLQMNSLKPEDTAVYYCAAYPHRPRDRELDHWGQGTQVTVSS,low polyreactivity
14,QVQLVESGGGLVQAGGSLRLSCAASGRTLDWNAMGWYRPAPGKERELVAAISWSGDSTYYADSVKGRFTISRDNAKNTVYLQMNSLKPEDTAVYYCAAAGVYYGVRGTTYAFDYWGQGTQVTVSS,low polyreactivity
15,QVQLVESGGGLVQAGGSLRLICAASGNTFTGYVMGWNRQAPGKEREYVAAIRSGGSTYYADSVKGRFTISRDNAKNTVYLQMNSLKPEDTSVYYCAKCVTPYRTSAYGYWGQGTQVTVSS,high polyreactivity

# Reference: the nanobody polyreactivity screen of Harvey et al. (2022)
